Measurements from patent US20130072665A1 (Amgen, published 2013).

How the values were obtained:
mouse PCSK9 [1] = biological target: T1, mouse PCSK9 (mouse, UniProt Q80W65 35-694, limits assumed); experiment: BIAcore solution equilibrium
T1 construct: biotinylated, tag not mentioned, in the hybridoma screen; also called mPCSK9-8xHIS; mPCSK9

mouse PCSK9 [2] = biological target: T1, mouse PCSK9; experiment: BIAcore, antibody immobilised, pH 7.4
Procedure: Briefly, the surface plasmon resonance experiments were performed using Biacore 2000 optical biosensors (Biacore, GE Healthcare, Piscataway, N.J.). […] The concentration of PCSK9 protein was varied at 2 fold intervals (the analyte) and was injected over the immobilized antibody surface (at a flow rate of 100 μl/min for 1.5 minutes).
Antibody binding kinetic parameters including kₐ (association rate constant), kd (dissociation rate constant), and KD (dissociation equilibrium constant) were determined using the BIA evaluation 3.1 computer program (BIAcore, Inc. Piscataway, N.J.).

- Kd (mouse PCSK9 [1]): 17 nM
- Kd (mouse PCSK9 [2]): 460 nM
B1: 21B12, anti-PCSK9 huIgG4 (antibody, V domains shown)
VH: QVQLVQSGAEVKKPGASVKVSCKASGYTLTSYGISWVRQAPGQGLEWMGWVSFYNGNTNYAQKLQGRGTMTTDPSTSTAYMELRSLRSDDTAVYYCARGYGMDVWGQGTTVTVSS
VL: QSALTQPASVSGSPGQSITISCTGTSSDVGGYNSVSWYQQHPGKAPKLMIYEVSNRPSGVSNRFSGSKSGNTASLTISGLQAEDEADYYCNSYTSTSMVFGGGTKLTVLQ
notes: from hybridoma; also called 21B12 IgG4; 21B12.1
